# Experimental data published in paper PMC2195629.
# Target: Glycocalicin, the soluble extracellular portion of human GP Ibα (human) (UniProt P07359)
# Test: cell adhesion assay
# Chain of UniProt P07359 (P07359 17-531): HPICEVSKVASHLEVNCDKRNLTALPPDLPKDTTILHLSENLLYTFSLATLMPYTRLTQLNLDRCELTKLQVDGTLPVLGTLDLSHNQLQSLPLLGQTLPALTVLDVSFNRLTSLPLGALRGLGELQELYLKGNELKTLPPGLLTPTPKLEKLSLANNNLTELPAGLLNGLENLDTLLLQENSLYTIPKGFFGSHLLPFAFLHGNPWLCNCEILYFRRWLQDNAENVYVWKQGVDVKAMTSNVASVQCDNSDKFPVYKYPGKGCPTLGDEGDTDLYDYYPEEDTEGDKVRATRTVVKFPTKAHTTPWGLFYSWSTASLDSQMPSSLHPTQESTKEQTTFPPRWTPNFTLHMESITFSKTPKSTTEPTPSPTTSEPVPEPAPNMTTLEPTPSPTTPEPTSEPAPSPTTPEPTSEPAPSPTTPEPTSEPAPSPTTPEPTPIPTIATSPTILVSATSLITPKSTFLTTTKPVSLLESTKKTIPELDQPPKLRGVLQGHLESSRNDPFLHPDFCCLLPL
substance,measurement,value
phosphatidylinositol glycan–linked form of P-selectin on CHO cells (CHO-P) (from UniProt P16109 42-830) (receptor),fold adhesion over untransfected CHO cells,5 fold
